Data reported in patent US20190194304A1 (STICHTING SANQUIN BLOEDVOORZIENING, published 2019).

B4: human factor H (other, UniProt P08603 19-1231, looked up)
chain: EDCNELPPRRNTEILTGSWSDQTYPEGTQAIYKCRPGYRSLGNVIMVCRKGEWVALNPLRKCQKRPCGHPGDTPFGTFTLTGGNVFEYGVKAVYTCNEGYQLLGEINYRECDTDGWTNDIPICEVVKCLPVTAPENGKIVSSAMEPDREYHFGQAVRFVCNSGYKIEGDEEMHCSDDGFWSKEKPKCVEISCKSPDVINGSPISQKIIYKENERFQYKCNMGYEYSERGDAVCTESGWRPLPSCEEKSCDNPYIPNGDYSPLRIKHRTGDEITYQCRNGFYPATRGNTAKCTSTGWIPAPRCTLKPCDYPDIKHGGLYHENMRRPYFPVAVGKYYSYYCDEHFETPSGSYWDHIHCTQDGWSPAVPCLRKCYFPYLENGYNQNYGRKFVQGKSIDVACHPGYALPKAQTTVTCMENGWSPTPRCIRVKTCSKSSIDIENGFISESQYTYALKEKAKYQCKLGYVTADGETSGSITCGKDGWSAQPTCIKSCDIPVFMNARTKNDFTWFKLNDTLDYECHDGYESNTGSTTGSIVCGYNGWSDLPICYERECELPKIDVHLVPDRKKDQYKVGEVLKFSCKPGFTIVGPNSVQCYHFGLSPDLPICKEQVQSCGPPPELLNGNVKEKTKEEYGHSEVVEYYCNPRFLMKGPNKIQCVDGEWTTLPVCIVEESTCGDIPELEHGWAQLSSPPYYYGDSVEFNCSESFTMIGHRSITCIHGVWTQLPQCVAIDKLKKCKSSNLIILEEHLKNKKEFDHNSNIRYRCRGKEGWIHTVCINGRWDPEVNCSMAQIQLCPPPPQIPNSHNMTTTLNYRDGEKVSVLCQENYLIQEGEEITCKDGRWQSIPLCVEKIPCSQPPQIEHGTINSSRSSQESYAHGTKLSYTCEGGFRISEENETTCYMGKWSSPPQCEGLPCKSPPEISHGVVAHMSDSYQYGEEVTYKCFEGFGIDGPAIAKCLGEKWSHPPSCIKTDCLSLPSFENAIPMGEKKDVYKAGEQVTYTCATYYKMDGASNVTCINSRWTGRPTCRDTSCVNPPTVQNAYIVSRQMSKYPSGERVRYQCRSPYEMFGDEEVMCLNGNWTEPPQCKDSTGKCGPPPPIDNGDITSFPLSVYAPASSVEYQCQNLYQLEGNKRITCRNGQWSEPPKCLHPCVISREIMENYNIALRWTAKQKLYSRTGESVEFVCKRGYRLSSRSHTLRTTCWDGKLEYPTCAKR
notes: mature; Purified plasma FH (CompTech) in SPR, bridging ELISA and hybridoma screening (biotinylated); FH of healthy donor or aHUS patient serum in the C3b ELISA and the functional assays. aHUS sera carry a heterozygous mutation in CCP 20 that is not specified; also called FH; human purified factor H

How the values were obtained:
[1] = target: B4; test: bridging ELISA: FH coat, biotinylated FH for detection
Method: One possible mechanism for the observed increased FH inhibitory function upon incubation with anti-FH.07 is multimerization of FH by crosslinking via the antibody, thereby increasing the avidity of FH for the surface. To test this possibility, we generated monovalent Fab′ fragments of anti-FH.07. If crosslinking of FH is the cause of the observed increased FH function, monovalent Fab′ fragments are expected to show no potentiating effect. With a bridging ELISA we first checked whether the generated Fab′ fragments were indeed completely monovalent and not capable to crosslink FH molecules. To this end an ELISA plate was coated with FH and biotinylated FH was used for detection. […] The anti-FH.07 F(ab′)₂ and Fab′ fragments were then tested in the C3 deposition assays on zymosan and LPS coated plates. To our surprise we observed the same potentiating effect of the Fab′ fragments on FH function. […] Therefore we concluded that the effect of anti-FH.07 was not due to crosslinking of FH molecules by the monoclonal antibody.

[2] = target: T1, recombinant FH CCP 15-19 (human, UniProt P08603 868-1165, 125I label); test: radioimmunoassay, moAb on RM-19 sepharose, 125I-labelled fragment
T1 construct: domain: CCP 15-19; also called recombinant FH CCP domains 15-19
T1 sequence (looked up): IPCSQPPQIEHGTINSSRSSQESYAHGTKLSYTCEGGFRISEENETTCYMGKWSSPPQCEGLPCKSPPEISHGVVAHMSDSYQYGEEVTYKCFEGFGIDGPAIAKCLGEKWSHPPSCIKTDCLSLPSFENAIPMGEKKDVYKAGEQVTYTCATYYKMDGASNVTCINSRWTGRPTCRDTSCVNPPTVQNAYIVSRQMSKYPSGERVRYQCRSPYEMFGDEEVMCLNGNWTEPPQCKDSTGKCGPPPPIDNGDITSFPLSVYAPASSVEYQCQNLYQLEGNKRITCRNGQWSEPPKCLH
Method: (§1) Reactivity of FH specific moAbs was tested with recombinant human FH fragments composed of multiple CCPs. To this end, fifty microliter of 100 μg/ml anti-FH moAbs was mixed with 0.5 ml of 2 mg/ml RM-19 coupled-sepharose (25 μg moAb per 1 mg CnBr-Sepharose). The FH fragments were labelled with ¹²⁵I and 100 μl (20000 c/30 sec) was added to each sample followed by incubation O/N. The assay was performed in PBS with 0.1% (w/v) Tween-20 and 0.1% (w/v) BSA (PTB). Samples were washed 5 times with PBS with 0.1% (w/v) Tween-20 and counted for 30 seconds. Sepharose bound radioactivity was measured and compared to total input (set to 100%).
(§2) In order to map the binding site of anti-FH.07, we tested the reactivity of this moAb towards a panel of radiolabeled recombinant CCP domains or purified human FH. Binding of the moAbs was tested in a radioimmunoassay and was related to the input (100%).

[3] = target: T2, recombinant FH CCP 15-18 (human, UniProt P08603 868-1104, 125I label); test: as above
T2 construct: domain: CCP 15-18; also called recombinant FH CCP domains 15-18
T2 sequence (looked up): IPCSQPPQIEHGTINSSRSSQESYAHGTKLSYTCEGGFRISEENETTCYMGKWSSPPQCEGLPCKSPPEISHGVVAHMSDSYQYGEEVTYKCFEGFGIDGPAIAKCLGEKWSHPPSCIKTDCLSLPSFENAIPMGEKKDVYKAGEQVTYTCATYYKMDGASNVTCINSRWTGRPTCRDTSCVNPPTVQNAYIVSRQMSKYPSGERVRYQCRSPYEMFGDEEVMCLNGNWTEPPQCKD
Method: as §1, §2

[4] = target: T3, recombinant FH CCP 18-20 (human, UniProt P08603 1046-1231, 125I label); test: as above
T3 construct: domain: CCP 18-20; also called recombinant FH CCP domains 18-20
T3 sequence (looked up): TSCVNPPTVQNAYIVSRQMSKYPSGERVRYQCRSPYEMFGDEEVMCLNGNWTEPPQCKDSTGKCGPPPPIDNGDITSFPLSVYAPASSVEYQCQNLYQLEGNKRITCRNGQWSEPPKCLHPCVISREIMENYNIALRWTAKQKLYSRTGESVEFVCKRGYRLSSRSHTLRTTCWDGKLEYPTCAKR
Method: as §1, §2

[5] = target: T4, C3b (UniProt P01024 23-667; P01024 749-1663, limits assumed); test: SPR, Fab′ injected without FH over immobilised C3b
T4 construct: domain: C3b; C3b has two disulfide-linked chains (beta and alpha′); also called purified C3b
T4 sequence (P01024 23-667 limits assumed, chain 1 of 2): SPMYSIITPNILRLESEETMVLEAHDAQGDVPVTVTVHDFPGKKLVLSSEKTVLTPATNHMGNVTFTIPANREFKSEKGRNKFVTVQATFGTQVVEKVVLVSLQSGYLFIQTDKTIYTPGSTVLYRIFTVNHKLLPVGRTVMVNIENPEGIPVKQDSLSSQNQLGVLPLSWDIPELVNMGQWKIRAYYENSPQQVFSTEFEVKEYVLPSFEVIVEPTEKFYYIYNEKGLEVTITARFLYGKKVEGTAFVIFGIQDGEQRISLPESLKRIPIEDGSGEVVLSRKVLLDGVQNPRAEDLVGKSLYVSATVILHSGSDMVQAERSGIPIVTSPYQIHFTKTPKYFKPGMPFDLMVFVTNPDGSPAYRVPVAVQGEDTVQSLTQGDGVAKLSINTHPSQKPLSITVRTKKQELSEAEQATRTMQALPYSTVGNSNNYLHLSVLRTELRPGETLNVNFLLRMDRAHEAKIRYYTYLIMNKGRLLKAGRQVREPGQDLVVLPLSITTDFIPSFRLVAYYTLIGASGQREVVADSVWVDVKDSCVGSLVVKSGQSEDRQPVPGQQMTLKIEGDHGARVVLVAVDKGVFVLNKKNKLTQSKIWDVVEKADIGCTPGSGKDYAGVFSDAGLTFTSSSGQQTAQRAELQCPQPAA
T4 sequence (P01024 749-1663 limits assumed, chain 2 of 2): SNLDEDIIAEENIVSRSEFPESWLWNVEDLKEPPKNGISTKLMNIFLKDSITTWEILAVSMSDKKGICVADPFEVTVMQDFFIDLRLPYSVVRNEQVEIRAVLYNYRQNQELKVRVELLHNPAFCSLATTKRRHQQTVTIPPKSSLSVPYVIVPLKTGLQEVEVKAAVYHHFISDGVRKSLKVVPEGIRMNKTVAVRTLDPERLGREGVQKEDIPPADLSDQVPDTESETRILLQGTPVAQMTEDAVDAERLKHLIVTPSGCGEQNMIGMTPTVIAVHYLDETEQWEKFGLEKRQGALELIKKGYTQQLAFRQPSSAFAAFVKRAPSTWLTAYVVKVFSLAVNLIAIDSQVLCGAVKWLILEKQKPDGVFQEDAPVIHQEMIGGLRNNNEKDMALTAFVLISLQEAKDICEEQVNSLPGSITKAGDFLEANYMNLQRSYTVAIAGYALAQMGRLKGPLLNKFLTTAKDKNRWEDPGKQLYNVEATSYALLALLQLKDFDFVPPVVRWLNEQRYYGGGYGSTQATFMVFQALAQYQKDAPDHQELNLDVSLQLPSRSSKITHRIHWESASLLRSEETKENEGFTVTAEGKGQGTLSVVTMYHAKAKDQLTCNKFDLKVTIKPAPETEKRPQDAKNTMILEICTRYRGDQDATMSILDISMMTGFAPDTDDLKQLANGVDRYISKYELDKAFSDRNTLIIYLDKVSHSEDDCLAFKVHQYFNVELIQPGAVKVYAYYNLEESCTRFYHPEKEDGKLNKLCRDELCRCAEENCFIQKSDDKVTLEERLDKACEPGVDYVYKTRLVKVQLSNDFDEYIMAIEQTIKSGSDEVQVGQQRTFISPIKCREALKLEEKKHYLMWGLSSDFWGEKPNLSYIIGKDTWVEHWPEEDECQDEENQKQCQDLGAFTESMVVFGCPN
Method: (§3) Binding of FH to C3b, iC3b or C3d in the presence of the anti-FH moAbs was determined by surface plasmon resonance using a Biacore T3000 instrument (GE Healthcare, Little Chalfont, UK). Purified C3b, iC3b or C3d (Complement Technologies) was immobilized onto one of three flow cells of a CM5 Biacore Sensor Chip (GE Healthcare) using standard […] coupling. The remaining flow cell was used as reference surface and prepared by performing a coupling reaction without the addition of any protein. A response of 4400 response units (RUs), 4180 RUs and 1470 RUs was obtained after coupling with C3b, iC3b and C3d, respectively. SPR experiments were performed at 25° C. using a flow rate of 10 μl/min and in 10 mM HEPES-buffered 150 mM saline, pH 7.4, with 0.05% (w/v) Tween-20 (HBS-P). Duplicate injections of 0.5 μM FH with a contact time of 210 seconds were performed to obtain a reference binding signal for FH on each surface. After each sample injection a dissociation time of 240 seconds was allowed, using HBS-P as running buffer, followed by a single 30 seconds injection of 1 M NaCl to regenerate the surface.
To determine the effect of anti-FH.07 without interference of possible cross-linking via the moAb, Fab′ fragments, generated as described above, were used. […]

[6] = target: T4, C3b; test: SPR, 0.5 µM FH with anti-FH.07 Fab′ (2 to 1 molar ratio) over immobilised C3b
Method: as §3, with “After each sample injection a dissociation time of 240 seconds was allowed, using HBS-P as running buffer, followed by a single 30 seconds injection of 1 M NaCl to regenerate the surface.” left out
(§4) In addition, SPR experiments were conducted to study the interaction of FH with C3b, iC3b and C3d in the absence and presence of […] Fab′ fragments. Briefly, three flow cells of a CM5 Biacore Sensor chip were coated with either C3b, iC3b or C3d and interactions of FH with these surfaces in the absence or presence of anti-FH moAb was determined on a Biacore T3000 system.

[7] = target: T5, iC3b (UniProt P01024 23-667; P01024 749-1303; P01024 1321-1663, limits assumed); test: SPR, 0.5 µM FH with anti-FH.07 Fab′ (2 to 1 molar ratio) over immobilised iC3b
T5 construct: domain: iC3b; also called purified iC3b
T5 sequence (P01024 23-667 limits assumed, chain 1 of 3): as the sequence (P01024 23-667 limits assumed, chain 1 of 2) above
T5 sequence (P01024 749-1303 limits assumed, chain 2 of 3): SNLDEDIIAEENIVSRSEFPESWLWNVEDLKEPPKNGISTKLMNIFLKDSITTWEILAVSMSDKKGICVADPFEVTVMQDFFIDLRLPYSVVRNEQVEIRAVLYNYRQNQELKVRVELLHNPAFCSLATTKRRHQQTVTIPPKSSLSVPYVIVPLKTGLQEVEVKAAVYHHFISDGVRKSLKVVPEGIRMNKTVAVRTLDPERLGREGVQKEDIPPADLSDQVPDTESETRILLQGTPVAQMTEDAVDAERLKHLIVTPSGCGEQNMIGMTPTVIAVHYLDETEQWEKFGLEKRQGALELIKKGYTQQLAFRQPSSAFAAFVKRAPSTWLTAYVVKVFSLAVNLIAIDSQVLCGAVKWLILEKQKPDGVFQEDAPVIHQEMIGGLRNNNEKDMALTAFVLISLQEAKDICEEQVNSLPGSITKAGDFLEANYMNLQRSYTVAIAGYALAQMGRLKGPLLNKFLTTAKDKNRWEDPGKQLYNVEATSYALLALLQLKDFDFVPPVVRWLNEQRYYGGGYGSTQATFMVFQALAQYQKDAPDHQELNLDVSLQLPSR
T5 sequence (P01024 1321-1663 limits assumed, chain 3 of 3): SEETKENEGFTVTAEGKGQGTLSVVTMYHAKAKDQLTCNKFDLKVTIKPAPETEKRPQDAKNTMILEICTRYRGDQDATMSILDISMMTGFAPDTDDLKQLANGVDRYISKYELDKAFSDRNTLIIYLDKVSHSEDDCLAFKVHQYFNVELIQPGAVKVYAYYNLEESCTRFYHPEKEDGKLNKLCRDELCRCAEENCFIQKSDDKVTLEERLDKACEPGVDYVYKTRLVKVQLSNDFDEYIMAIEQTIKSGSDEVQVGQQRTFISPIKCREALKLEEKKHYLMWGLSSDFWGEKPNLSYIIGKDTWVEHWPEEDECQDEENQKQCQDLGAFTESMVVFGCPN
Method: as §3, with “After each sample injection a dissociation time of 240 seconds was allowed, using HBS-P as running buffer, followed by a single 30 seconds injection of 1 M NaCl to regenerate the surface.” left out
as §4

B1: monoclonal antibody anti-FH.07 (murine IgG1) (antibody, V domains shown)
VH: QVQLQQSGPGLVQPSQSLSITCTVSDFSLARYGVHWIRQSPGKGLEWLGVIWSGGTADYNAAFISRLNINKDNSKSQVFFKMNSLQANDTAIYYCARNFGNYAVDYWGQGTS
VL: QIVLSQSPTFLSASPGEKVTVTCRASSSVKYMHWYQQKPGASPKPWIFATSNLASGVPARFSGSGSGTSYSLTISRVEAEDAATYYCQQWSIIPPTFGNGTKLELK
notes: Captured with rat anti-mouse kappa RM19; also called intact IgG; intact antibody
[1]
  binding result: binds
[2]
  binding result: binds
[3]
  binding result: binds
[4]
  binding result: binds

B2: Fab′ fragments of anti-FH.07 (Fab, V domains shown)
VH: QVQLQQSGPGLVQPSQSLSITCTVSDFSLARYGVHWIRQSPGKGLEWLGVIWSGGTADYNAAFISRLNINKDNSKSQVFFKMNSLQANDTAIYYCARNFGNYAVDYWGQGTS
VL: QIVLSQSPTFLSASPGEKVTVTCRASSSVKYMHWYQQKPGASPKPWIFATSNLASGVPARFSGSGSGTSYSLTISRVEAEDAATYYCQQWSIIPPTFGNGTKLELK
modifications: free thiol groups blocked with iodoacetamide after reduction with dithioerythritol
notes: also called anti-FH.07 Fab′
[5]
  binding result: no binding

B3: F(ab′)2 fragments of anti-FH.07 (other)
VH: QVQLQQSGPGLVQPSQSLSITCTVSDFSLARYGVHWIRQSPGKGLEWLGVIWSGGTADYNAAFISRLNINKDNSKSQVFFKMNSLQANDTAIYYCARNFGNYAVDYWGQGTS
VL: QIVLSQSPTFLSASPGEKVTVTCRASSSVKYMHWYQQKPGASPKPWIFATSNLASGVPARFSGSGSGTSYSLTISRVEAEDAATYYCQQWSIIPPTFGNGTKLELK
notes: also called anti-FH.07 F(ab′)2
[1]
  binding result: binds

## B4
[6]
  fold increase of the measured interactions (RU) with anti-FH.07 Fab′ against FH alone: ≥ 2 fold
[7]
  fold increase of the measured interactions (RU) with anti-FH.07 Fab′ against FH alone: ≥ 2 fold
